T1: human IL-23 (human, UniProt P29460 23-328; Q9NPF7 20-189)
T1 construct: Recombinant (Ebioscience); HIS-tagged in flow cytometry, biotinylated in some assays; also called hIL-23; rhIL-23
T1 sequence 1: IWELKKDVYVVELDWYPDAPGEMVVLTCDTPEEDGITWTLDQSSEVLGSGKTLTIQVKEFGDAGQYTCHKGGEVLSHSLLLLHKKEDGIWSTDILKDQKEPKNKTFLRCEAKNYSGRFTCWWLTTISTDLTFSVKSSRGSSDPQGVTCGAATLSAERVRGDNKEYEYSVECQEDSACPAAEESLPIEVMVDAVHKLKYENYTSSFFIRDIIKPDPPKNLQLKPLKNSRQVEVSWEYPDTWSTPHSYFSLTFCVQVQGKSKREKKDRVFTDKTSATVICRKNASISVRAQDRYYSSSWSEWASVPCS
T1 sequence 2: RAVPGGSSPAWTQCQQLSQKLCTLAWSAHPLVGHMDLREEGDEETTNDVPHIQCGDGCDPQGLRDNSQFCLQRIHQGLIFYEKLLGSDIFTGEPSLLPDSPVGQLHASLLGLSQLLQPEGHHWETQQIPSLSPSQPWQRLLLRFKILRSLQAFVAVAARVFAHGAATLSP

T2: human IL-12 (human, UniProt P29460 23-328; P29459 23-219)
T2 construct: Recombinant (Peprotech); FLAG-tagged IL-12 in the flow cytometry assays, biotinylated in the IL-12Rβ2 assay; also called hIL-12
T2 sequence 1: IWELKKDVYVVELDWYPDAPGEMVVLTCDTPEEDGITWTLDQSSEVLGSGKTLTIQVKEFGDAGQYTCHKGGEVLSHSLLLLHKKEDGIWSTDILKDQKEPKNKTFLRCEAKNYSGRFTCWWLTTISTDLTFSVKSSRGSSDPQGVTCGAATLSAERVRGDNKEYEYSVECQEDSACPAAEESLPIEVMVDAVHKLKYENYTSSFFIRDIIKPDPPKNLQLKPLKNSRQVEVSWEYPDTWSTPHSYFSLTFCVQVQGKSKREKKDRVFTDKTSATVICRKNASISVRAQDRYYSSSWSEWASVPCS
T2 sequence 2: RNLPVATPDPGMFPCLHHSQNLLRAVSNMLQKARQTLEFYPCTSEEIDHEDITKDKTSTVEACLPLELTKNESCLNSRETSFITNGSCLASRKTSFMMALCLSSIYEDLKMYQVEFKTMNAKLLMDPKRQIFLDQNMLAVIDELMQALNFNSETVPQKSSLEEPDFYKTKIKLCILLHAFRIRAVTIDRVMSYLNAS


Experiments:
human IL-23 [1] = molecular target: T1, human IL-23; assay: SPR, single 81 nM analyte, scFv via FLAG
human IL-12 = molecular target: T2, human IL-12; assay: ELISA, coated IL-12
Method in brief: (§1)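 Cytokine at 1 μg/mL in carbonate buffer pH 9.6 was coated overnight at 4° C onto Maxisorp plates and blocked with 1% BSA in PBS for 1 hour at 25° C. Antibody titrations were bound for 1 hour at 25° C, then detected with goat anti-human IgG or anti-murine immunoglobulin HRP (1:2000, 1 hour). TMB was developed and stopped with 1M HCl. The binding result is absorbance at 450 nm (reference 620 nm).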

human IL-23 [2] = molecular target: T1, human IL-23; assay: ELISA, coated IL-23
Method in brief: as §1

Row | Binder | Kd (human IL-23 [1]) | koff (human IL-23 [1]) | kon (human IL-23 [1]) | binding result (human IL-12) | binding result (human IL-23 [2])
1 | scFv combo. # 13 (scFv, scFv-80 with VH T28A, Q43R; VL I55T; not shown: proprietary C-terminal FLAG tag) scFv: QVQLVQSGAEVKKPGASVKVSCKASGYAFTDYYLHWVRQAPGRGLEWMGWIDPENGDTEYAPKFQGRVTMTTDTSTSTAYMELRSLRSDDTAVYYCNANKELRYFDVWGQGTMVTVSSGGGGSGGGGSGGGGSEIVMTQSPATLSVSPGERATLSCRASQSISINLHWYQQKPGQAPRLLIYFASQSTSGIPARFSGSGSGTEFTLTISSLQSEDFAVYYCQQSNSFPLTFGGGTKVEIKR | 51 pM | 1.3e-05 s⁻¹ | 250000 M⁻¹ s⁻¹ | – | –
2 | Antibody 108 (antibody, human IgG1, kappa, V domains shown) VH: EVQLVQSGAEVKKPGATVKISCKASGYTISDYYLHWVRQAPEKGLEWMGWIDPENGDTEYAPKFQGRVTITADTSTDTGYLELSSLRSEDTAVYYCAANKELRYFDVWGQGTLVTVSS VL: DIQMTQSPSSVSASVGDRVTITCRASQSISINLHWYQQKPGKAPKLLIYFASQSISGVPSRFSGSGSGTDFSLTINSLQPEDFARYYCQQSNSFPLTFGGGTKVEIKR | – | – | – | binds | binds
3 | Antibody 113 (antibody, human IgG1, kappa, V domains shown) VH: EVQLVQSGAEVKKPGATVKISCKASGYTFSDYYLHWVRQAPEKGLEWMGWIDPENGDTEYAPKFQGRATITADTSTDTGYLELSSLRSEDTAVYYCAANKELRYFDVWGQGTLVTVSS VL: DIQMTQSPSSVSASVGDRVTITCRASQSISINLHWYQQKPGKAPKLLIYFASQSISGVPSRFSGSGSGTDFSLTINSLQPEDFARYYCQQSNSFPLTFGGGTKVEIKR | – | – | – | binds | binds
4 | Antibody 112 (antibody, human IgG1, kappa, V domains shown) VH: EVQLVQSGAEVKKPGATVKISCKASGYTFSDYYLHWVRQAPEKGLEWIGWIDPENGDTEYAPKFQGRVTITADTSTDTGYLELSSLRSEDTAVYYCAANKELRYFDVWGQGTLVTVSS VL: DIQMTQSPSSVSASVGDRVTITCRASQSISINLHWYQQKPGKAPKLLIYFASQSISGVPSRFSGSGSGTDFSLTINSLQPEDFARYYCQQSNSFPLTFGGGTKVEIKR | – | – | – | binds | binds
5 | Antibody 115 (antibody, human IgG1, kappa, V domains shown) VH: EVQLVQSGAEVKKPGATVKISCKASGYTFSDYYLHWVRQAPEKGLEWMGWIDPENGDTEYAPKFQGRVTITTDTSTDTGYLELSSLRSEDTAVYYCAANKELRYFDVWGQGTLVTVSS VL: DIQMTQSPSSVSASVGDRVTITCRASQSISINLHWYQQKPGKAPKLLIYFASQSISGVPSRFSGSGSGTDFSLTINSLQPEDFARYYCQQSNSFPLTFGGGTKVEIKR | – | – | – | binds | binds
6 | Antibody 119 (antibody, human IgG1, kappa, V domains shown) VH: EVQLVQSGAEVKKPGATVKISCKASGYTFSDYYLHWVRQAPEKGLEWMGWIDPENGDTEYAPKFQGRVTITADTSTDTGYMELSSLRSEDTAVYYCAANKELRYFDVWGQGTLVTVSS VL: DIQMTQSPSSVSASVGDRVTITCRASQSISINLHWYQQKPGKAPKLLIYFASQSISGVPSRFSGSGSGTDFSLTINSLQPEDFARYYCQQSNSFPLTFGGGTKVEIKR | – | – | – | binds | binds
7 | Antibody 121 (antibody, human IgG1, kappa, V domains shown) VH: EVQLVQSGAEVKKPGATVKISCKASGYTFSDYYLHWVRQAPEKGLEWMGWIDPENGDTEYAPKFQGRVTITADTSTDTGYLELRSLRSEDTAVYYCAANKELRYFDVWGQGTLVTVSS VL: DIQMTQSPSSVSASVGDRVTITCRASQSISINLHWYQQKPGKAPKLLIYFASQSISGVPSRFSGSGSGTDFSLTINSLQPEDFARYYCQQSNSFPLTFGGGTKVEIKR | – | – | – | binds | binds
8 | Antibody 116 (antibody, human IgG1, kappa, V domains shown) VH: EVQLVQSGAEVKKPGATVKISCKASGYTFSDYYLHWVRQAPEKGLEWMGWIDPENGDTEYAPKFQGRVTITADTSSDTGYLELSSLRSEDTAVYYCAANKELRYFDVWGQGTLVTVSS VL: DIQMTQSPSSVSASVGDRVTITCRASQSISINLHWYQQKPGKAPKLLIYFASQSISGVPSRFSGSGSGTDFSLTINSLQPEDFARYYCQQSNSFPLTFGGGTKVEIKR | – | – | – | binds | binds
9 | Antibody 109 (antibody, human IgG1, kappa, V domains shown) VH: EVQLVQSGAEVKKPGATVKISCKASGYTFKDYYLHWVRQAPEKGLEWMGWIDPENGDTEYAPKFQGRVTITADTSTDTGYLELSSLRSEDTAVYYCAANKELRYFDVWGQGTLVTVSS VL: DIQMTQSPSSVSASVGDRVTITCRASQSISINLHWYQQKPGKAPKLLIYFASQSISGVPSRFSGSGSGTDFSLTINSLQPEDFARYYCQQSNSFPLTFGGGTKVEIKR | – | – | – | binds | binds
10 | Antibody 123 (antibody, human IgG1, kappa, V domains shown) VH: EVQLVQSGAEVKKPGATVKISCKASGYTFSDYYLHWVRQAPEKGLEWMGWIDPENGDTEYAPKFQGRVTITADTSTDTGYLELSSLRSDDTAVYYCAANKELRYFDVWGQGTLVTVSS VL: DIQMTQSPSSVSASVGDRVTITCRASQSISINLHWYQQKPGKAPKLLIYFASQSISGVPSRFSGSGSGTDFSLTINSLQPEDFARYYCQQSNSFPLTFGGGTKVEIKR | – | – | – | binds | binds
11 | Antibody 122 (antibody, human IgG1, kappa, V domains shown) VH: EVQLVQSGAEVKKPGATVKISCKASGYTFSDYYLHWVRQAPEKGLEWMGWIDPENGDTEYAPKFQGRVTITADTSTDTGYLELSSLTSEDTAVYYCAANKELRYFDVWGQGTLVTVSS VL: DIQMTQSPSSVSASVGDRVTITCRASQSISINLHWYQQKPGKAPKLLIYFASQSISGVPSRFSGSGSGTDFSLTINSLQPEDFARYYCQQSNSFPLTFGGGTKVEIKR | – | – | – | binds | binds
12 | Antibody 117 (antibody, human IgG1, kappa, V domains shown) VH: EVQLVQSGAEVKKPGATVKISCKASGYTFSDYYLHWVRQAPEKGLEWMGWIDPENGDTEYAPKFQGRVTITADTSTNTGYLELSSLRSEDTAVYYCAANKELRYFDVWGQGTLVTVSS VL: DIQMTQSPSSVSASVGDRVTITCRASQSISINLHWYQQKPGKAPKLLIYFASQSISGVPSRFSGSGSGTDFSLTINSLQPEDFARYYCQQSNSFPLTFGGGTKVEIKR | – | – | – | binds | binds
13 | Antibody 118 (antibody, human IgG1, kappa, V domains shown) VH: EVQLVQSGAEVKKPGATVKISCKASGYTFSDYYLHWVRQAPEKGLEWMGWIDPENGDTEYAPKFQGRVTITADTSTDTAYLELSSLRSEDTAVYYCAANKELRYFDVWGQGTLVTVSS VL: DIQMTQSPSSVSASVGDRVTITCRASQSISINLHWYQQKPGKAPKLLIYFASQSISGVPSRFSGSGSGTDFSLTINSLQPEDFARYYCQQSNSFPLTFGGGTKVEIKR | – | – | – | binds | binds
14 | Antibody 124 (antibody, human IgG1, kappa) heavy chain: not shown light chain: DIQMTQSPSSVSASVGDRVTITCRASQSISINLHWYQQKPGKAPKLLIYFASQSISGVPSRFSGSGSGTDFSLTINSLQPEDFARYYCQQSNSFPLTFGGGTKVEIKRTVAAPSVFIFPPSDEQLKSGTASVVCLLNNFYPREAKVQWKVDNALQSGNSQESVTEQDSKDSTYSLSSTLTLSKADYEKHKVYACEVTHQGLSSPVTKSFNRGEC | – | – | – | binds | binds
15 | Antibody 120 (antibody, human IgG1, kappa, V domains shown) VH: EVQLVQSGAEVKKPGATVKISCKASGYTFSDYYLHWVRQAPEKGLEWMGWIDPENGDTEYAPKFQGRVTITADTSTDTGYLQLSSLRSEDTAVYYCAANKELRYFDVWGQGTLVTVSS VL: DIQMTQSPSSVSASVGDRVTITCRASQSISINLHWYQQKPGKAPKLLIYFASQSISGVPSRFSGSGSGTDFSLTINSLQPEDFARYYCQQSNSFPLTFGGGTKVEIKR | – | – | – | binds | binds
16 | Antibody 114 (antibody, human IgG1, kappa, V domains shown) VH: EVQLVQSGAEVKKPGATVKISCKASGYTFSDYYLHWVRQAPEKGLEWMGWIDPENGDTEYAPKFQGRVTMTADTSTDTGYLELSSLRSEDTAVYYCAANKELRYFDVWGQGTLVTVSS VL: DIQMTQSPSSVSASVGDRVTITCRASQSISINLHWYQQKPGKAPKLLIYFASQSISGVPSRFSGSGSGTDFSLTINSLQPEDFARYYCQQSNSFPLTFGGGTKVEIKR | – | – | – | binds | binds
17 | Antibody 110 (antibody, human IgG1, kappa, V domains shown) VH: EVQLVQSGAEVKKPGATVKISCKASGYTFSDYYLHWVKQAPEKGLEWMGWIDPENGDTEYAPKFQGRVTITADTSTDTGYLELSSLRSEDTAVYYCAANKELRYFDVWGQGTLVTVSS VL: DIQMTQSPSSVSASVGDRVTITCRASQSISINLHWYQQKPGKAPKLLIYFASQSISGVPSRFSGSGSGTDFSLTINSLQPEDFARYYCQQSNSFPLTFGGGTKVEIKR | – | – | – | binds | binds

Reference: US20110262445A1 (CEPHALON AUSTRALIA, published 2011)
